The labels stand for the following.
B1: gamma-hemolysin component HlgA (S component leukotoxin) of Staphylococcus aureus (natural protein)
chain: ENKIEDIGQGAEIIKRTQDITSKRLAITQNIQFDFVKDKKYNKDALVVKMQGFISSRTTYSDLKKYPYIKRMIWPFQYNISLKTKDSNVDLINYLPKNKIDSADVSQKLGYNIGGNFQSAPSIGGSGSFNYSKTISYNQKNYVTEVESQNSKGVKWGVKANSFVTPNGQVSAYDQYLFAQDPTGPAARDYFVPDNQLPPLIQSGFNPSFITTLSHERGKGDKSEFEITYGRNMDATYAYVTRHRLAVDRKHDAFKNRNVTVKYEVNWKTHEVKIKSITPK
B2: atypical chemokine receptor 1 (ACKR1), purified, glycosylated wild type (receptor)
chain: MGNCLHRAELSPSTENSSQLDFEDVWNSSYGVNDSFPDGDYGANLEAAAPCHSCNLLDDSALPFFILTSVLGILASSTVLFMLFRPLFRWQLCPGWPVLAQLAVGSALFSIVVPVLAPGLGSTRSSALCSLGYCVWYGSAFAQALLLGCHASLGHRLGAGQVPGLTLGLTVGIWGVAALLTLPVTLASGASGGLCTLIYSTELKALQATHTVACLAIFVLLPLGLFGAKGLKKALGMGPGPWMNILWAWFIFWWPHGVVLGLDFLVRSKLLLLSTCLAQQALDLLLNLAEALAILHCVATPLLLALFCHQATRTLLPSLPLPEGWSSHLDTLGSKS
modifications: N-glycosylated at N16, N27 and N33
B3: gamma-hemolysin component HlgB (F component leukotoxin) of Staphylococcus aureus (natural protein)
chain: NAEGKITPVSVKKVDDKVTLYKTTATADSDKFKISQILTFNFIKDKSYDKDTLVLKATGNINSGFVKPNPNDYDFSKLYWGAKYNVSISSQSNDSVNVVDYAPKNQNEEFQVQNTLGYTFGGDISISNGLSGGLNGNTAFSETINYKQESYRTTLSRNTNYKNVGWGVEAHKIMNNGWGPYGRDSFHPTYGNELFLAGRQSSAYAGQNFIAQHQMPLLSRSNFNPEFLSVLSHRQDGAKKSKITVTYQREMDLYQIRWNGFYWAGANYKNFKTRTFKSTYEIDWENHKVKLLDTKETENNK

Data set [1] deals with SNAP-tag-fused ACKR1 receptor (human) (UniProt Q16570). Briefly: FRET or BRET.
For data set [2], the target named is T1, gamma-hemolysin component HlgA (S component leukotoxin) of Staphylococcus aureus (Staphylococcus aureus), P0A074.
T1 chain: B1 chain
Kind of data set: native MS. To be noted: remark: other sources report otherwise.

In data set [3] the target is T2, N16,27,33Q-ACKR1 mutant (non-glycosylated) (human, UniProt Q16570 1-336, N^16,27,33Q | N^16,27,33Q | N^16,27,33Q).
T2 sequence: B2 chain with N16Q, N27Q, N33Q
Briefly: HDX-MS.

Data set [4] deals with B3. Kind of data set: native MS.
Data set [5] addresses T3, ACKR1 treated with PNGase F (deglycosylated ACKR1) (human, UniProt Q16570 1-336, N-glycans removed by PNGase F).
T3 sequence: B2 chain
Briefly: native MS.

The data set “native MS” concerns the molecule itself. Kind of data set: native MS.

The results in this text go back to article doi:10.1101/2021.02.08.430206 (bioRxiv, 2021).

Residue numbers refer to the chain shown, from its start.

One may read the IC50 as the concentration that inhibits the measured activity by half. “HlgAB, equimolar mixture of HlgA and HlgB (from UniProt P0A074;P0A077) (complex)”: the IC50 in data set [1] was determined as 6.2 nM. In other words, the single-digit nanomolar range.

A word on the stoichiometry N: it is the number of molecules, sites or subunits per partner or assembly. Consider B1, for which the relative quantification in the equimolar mixture (HlgA monomer 100%) in data set [2] worked out at 1.5%. The stoichiometry N in data set [2] turned out to be 2; in data set [5], 1. In addition, the binding result in data set [3] and in data set [4] was “binds” each time.

Turning to B2, in “native MS”, the “stoichiometry N” value turned out to be 2.

Regarding B3, the binding result in data set [3] was “binds”. In “native MS”, the “fold dimer-to-monomer ratio against HlgA” value was 2 fold and the “stoichiometry N” value worked out at 2.
